Kd, koff and kon data for 1 molecule are collected here from patent publication US20250223376A1 (VOYAGER THERAPEUTICS, published 2025).

Values joined by “and” are separate entries in the source; they are usually repeats but may differ in a detail not shown here. Equal values may be shown once.

For test [1], the target named is T1, HER2 ECD (human, UniProt P04626 23-652).
T1 construct: extracellular domain; also called HER2/neu; ErbB2
The test is described as follows: SPR Biacore 8K, captured Ab, HER2 ECD analyte; replicate 1. For orientation: Surface plasmon resonance follows binding to a sensor surface in real time, without labels.

The target in test [2] is T1, HER2 ECD. Nature of the test: SPR Biacore 8K, captured Ab, HER2 ECD analyte; replicate 2.
The target of test [3] is T1, HER2 ECD. Nature of the test: SPR Biacore 8K, captured Ab, HER2 ECD analyte; printed mean.

B1: HER-78 anti-HER2 bispecific antibody molecule (bispecific antibody)
chain 1: QVQLVQSGAEVKKPGASVKVSCKASGYSFTGYFINWVREAPGQGLEWMGHISSSYATSTYNQKFQGRVTFTVDTSSSTAYMELSSLRSEDTAVYYCVRSGNYEEYAMDYWGQGTLVTVSS
chain 2: not shown
The Kd is the constant that tells how readily two partners part at equilibrium. The term koff denotes the first-order rate constant of dissociation. By kon is commonly meant a measure of how fast the partners come together. A low value points to slower complex formation. Consider B1, for which, in the test with HER2 ECD [1], the Kd is 0.54 nM and 0.544 nM; the koff is 7.53e-05 s⁻¹; the kon amounted to 138000 M⁻¹ s⁻¹. Also, in the test with HER2 ECD [2], the Kd was determined as 0.57 nM, the koff amounted to 9.89e-05 s⁻¹ and the kon amounted to 174000 M⁻¹ s⁻¹. Further, in the test with HER2 ECD [3], the Kd is 0.44 nM and 0.436 nM; the koff was 7.28e-05 s⁻¹; the kon stood at 164000 M⁻¹ s⁻¹.
